Measurements: patent EP4803150A2 (Lyvgen Biopharma Holdings Limited, dated 2026)

B1: Ly2846 (multi-specific antibody)
chain 1: QVQLVQSGAEVKKPGASVKVSCKASGYTFTSYVMHWVRQKPGQGLEWIGYINPYNEGTESTDKFKGRATMTSDKSTSTVYMELSSLRSEDTAVYYCASIYYGYEGTYFGVWGQGTLVTVSSASTKGPSVFPLAPSSKSTSGGTAALGCLVKDYFPEPVTVSWNSGALTSGVHTFPAVLQSSGLYSLSSVVTVPSSSLGTQTYICNVNHKPSNTKVDKKVEPKSCGGGGSGGGGSGGGGSGGGGSEVQLVESGGGLVQPGGSLRLSCAASGFTFSTYAMNWVRQAPGKGLEWVGRIRSKYNNYATYYADSVKGRFTISRDDSKNSLYLQMNSLKTEDTAVYYCVRHGNFGNSYVSWFAYWGQGTLVTVSSGGGGSDKTHTCPPCPAPELLGPSVFLFPPKPKDTLMISRTPEVTCVVVDVSHEDPEVKFNWYVDGVEVHNAKTKPREEQYNSTYRVVSVLTVLHQDWLNGKEYKCKVSNKALGAPIEKTISKAKGQPREPQVYTLPPSREEMTKNQVSLWCLVKGFYPSDIAVEWESNGQPENNYKTTPPVLDSDGSFFLYSKLTVDKSRWQQGNVFSCSVMHEALHNHYTQKSLSLSPGKGGGGSGGGGSGGGGSGGGGSQVQLVQSGAEVKKPGASVKVSCKASGYTFTDFWMSWVRQAPGQGLEWMGQIYPNTGTTHSNEKFKGRVTMTRDTSTSTVYMELSSLRSEDTAVYYCARSYHISTTPNWFAYWGQGTLVTVSS
chain 2: QVQLVQSGAEVKKPGASVKVSCKASGYTFTSYVMHWVRQKPGQGLEWIGYINPYNEGTESTDKFKGRATMTSDKSTSTVYMELSSLRSEDTAVYYCASIYYGYEGTYFGVWGQGTLVTVSSASTKGPSVFPLAPSSKSTSGGTAALGCLVKDYFPEPVTVSWNSGALTSGVHTFPAVLQSSGLYSLSSVVTVPSSSLGTQTYICNVNHKPSNTKVDKKVEPKSCGGGGSGGGGSGGGGSGGGGSQAVVTQEPSLTVSPGGTVTLTCRSSTGAVTTSNYANWVQQKPGQAPRGLIGGTNKRAPWTPARFSGSLLGGKAALTITGAQAEDEADYYCALWYSNLWVFGGGTKLTVLGGGGSDKTHTCPPCPAPELLGPSVFLFPPKPKDTLMISRTPEVTCVVVDVSHEDPEVKFNWYVDGVEVHNAKTKPREEQYNSTYRVVSVLTVLHQDWLNGKEYKCKVSNKALGAPIEKTISKAKGQPREPQVYTLPPSREEMTKNQVSLSCAVKGFYPSDIAVEWESNGQPENNYKTTPPVLDSDGSFFLVSKLTVDKSRWQQGNVFSCSVMHEALHNRFTQKSLSLSPGKGGGGSGGGGSGGGGSGGGGSDIQMTQSPSSLSASVGDRVTITCKASQNVYKKLEWYQQKPGKVPKVLIYHTNILQTGVPSRFSGSGSGTDYTLTISSLQPEDVATYYCYQWNSGPTFGGGTKVEIK
chain 3: EIVLTQSPATLSLSPGERATLSCRASSSVSYMHWYQQKPGQAPRPWIYATSNLASGIPARFSGSRSGTDYTLTISSLEPEDFAVYYCQQWSSNTLTFGGGTKVEIKRTVAAPSVFIFPPSDEQLKSGTASVVCLLNNFYPREAKVQWKVDNALQSGNSQESVTEQDSKDSTYSLSSTLTLSKADYEKHKVYACEVTHQGLSSPVTKSFNRGEC
notes: anti-B7H3/CD3/PD-L1
B2: Ly2904 (multi-specific antibody)
chain 1: QVQLVQSGAEVKKPGASVKVSCKASGYTFTSYVMHWVRQKPGQGLEWIGYINPYNEGTESTDKFKGRATMTSDKSTSTVYMELSSLRSEDTAVYYCASIYYGYEGTYFGVWGQGTLVTVSSASTKGPSVFPLAPSSKSTSGGTAALGCLVKDYFPEPVTVSWNSGALTSGVHTFPAVLQSSGLYSLSSVVTVPSSSLGTQTYICNVNHKPSNTKVDKKVEPKSCGGGGSGGGGSGGGGSGGGGSEVQLVESGGGLVQPGGSLRLSCAASGFTFSTYAMNWVRQAPGKGLEWVGRIRSKYNNYATYYADSVKGRFTISRDDSKNSLYLQMNSLKTEDTAVYYCVRHGNFGNSYVSWFAYWGQGTLVTVSSGGGGSDKTHTCPPCPAPELLGPSVFLFPPKPKDTLMISRTPEVTCVVVDVSHEDPEVKFNWYVDGVEVHNAKTKPREEQYNSTYRVVSVLTVLHQDWLNGKEYKCKVSNKALGAPIEKTISKAKGQPREPQVYTLPPSREEMTKNQVSLWCLVKGFYPSDIAVEWESNGQPENNYKTTPPVLDSDGSFFLYSKLTVDKSRWQQGNVFSCSVMHEALHNHYTQKSLSLSPGKGGGGSGGGGSGGGGSGGGGSQVTLKESGPALVKPTQTLTLTCTFSGFSLSTSGTCVSWIRQPPGKALEWLATICWEDSKGYNPSLKSRLTISKDTSKNQAVLTMTNMDPVDTATYYCARREDSGYFWFPYWGQGTLVTVSS
chain 2: QVQLVQSGAEVKKPGASVKVSCKASGYTFTSYVMHWVRQKPGQGLEWIGYINPYNEGTESTDKFKGRATMTSDKSTSTVYMELSSLRSEDTAVYYCASIYYGYEGTYFGVWGQGTLVTVSSASTKGPSVFPLAPSSKSTSGGTAALGCLVKDYFPEPVTVSWNSGALTSGVHTFPAVLQSSGLYSLSSVVTVPSSSLGTQTYICNVNHKPSNTKVDKKVEPKSCGGGGSGGGGSGGGGSGGGGSQAVVTQEPSLTVSPGGTVTLTCRSSTGAVTTSNYANWVQQKPGQAPRGLIGGTNKRAPWTPARFSGSLLGGKAALTITGAQAEDEADYYCALWYSNLWVFGGGTKLTVLGGGGSDKTHTCPPCPAPELLGPSVFLFPPKPKDTLMISRTPEVTCVVVDVSHEDPEVKFNWYVDGVEVHNAKTKPREEQYNSTYRVVSVLTVLHQDWLNGKEYKCKVSNKALGAPIEKTISKAKGQPREPQVYTLPPSREEMTKNQVSLSCAVKGFYPSDIAVEWESNGQPENNYKTTPPVLDSDGSFFLVSKLTVDKSRWQQGNVFSCSVMHEALHNRFTQKSLSLSPGKGGGGSGGGGSGGGGSGGGGSNIQMTQSPSSLSASVGDRVTITCKAGQNVNNYLAWYQQKPGKAPKVLIFNANSLQTGVPSRFSGSGSGTDFTLTISSLQPEDFATYYCQQYNSWPTFGGGTKVEIK
chain 3: B1 chain 3
notes: anti-B7H3/CD3/PD-1

Columns and labels:
PD-L1 = target: T1, PD-L1 (human, UniProt Q9NZQ7 19-238, limits assumed); assay: FCM or ELISA, graded
T1 construct: On Raji cells expressing human PD-L1 in the reporter assay

PD-1 = target: T2, PD-1 (human, UniProt Q15116 25-167, limits assumed); assay: FCM or ELISA, graded
T2 construct: On Jurkat T cells expressing human PD-1 in the reporter assay
T2 sequence (Q15116 25-167 limits assumed): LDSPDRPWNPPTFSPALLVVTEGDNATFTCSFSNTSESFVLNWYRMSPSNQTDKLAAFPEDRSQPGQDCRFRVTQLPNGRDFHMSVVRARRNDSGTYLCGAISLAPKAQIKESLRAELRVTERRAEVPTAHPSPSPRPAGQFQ

T1 sequence (Q9NZQ7 19-238 limits assumed): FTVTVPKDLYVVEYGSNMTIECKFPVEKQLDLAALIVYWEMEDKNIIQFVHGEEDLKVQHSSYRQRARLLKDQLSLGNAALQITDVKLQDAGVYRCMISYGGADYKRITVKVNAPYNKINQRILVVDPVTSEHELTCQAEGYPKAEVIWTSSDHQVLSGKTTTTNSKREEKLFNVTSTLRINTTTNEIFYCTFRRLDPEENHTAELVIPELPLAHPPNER

| Binder | binding result (PD-L1) | binding result (PD-1) |
| --- | --- | --- |
| B1 | binds |  |
| B2 |  | binds |
